The source of these data is publication PMC8834707, “Probing the Dynamics of Streptococcus pyogenes Cas9 Endonuclease Bound to the sgRNA Complex Using Hydrogen-Deuterium Exchange Mass Spectrometry”.

For this series, the target named is Cas9 (SpCas9) (Streptococcus pyogenes, UniProt Q99ZW2 1-1368). Put plainly: HDX-MS; protein:RNA 1:10 molar ratio; sgRNA without DNA; 9 peptides with reduced and 21 with increased deuterium uptake on binding; HDX buffer, pH and temperature not given in the material (section 3.4 text absent); complex at 1:10 Cas9:sgRNA formed immediately before exchange, D2O incubation 1-480 min. The settings on record: protein: recombinant; tags: His-tag removed with TEV protease; single-strand sgRNA with repeat-antirepeat and stem-loops.
Sequence of Cas9 (SpCas9) (Q99ZW2 whole entry): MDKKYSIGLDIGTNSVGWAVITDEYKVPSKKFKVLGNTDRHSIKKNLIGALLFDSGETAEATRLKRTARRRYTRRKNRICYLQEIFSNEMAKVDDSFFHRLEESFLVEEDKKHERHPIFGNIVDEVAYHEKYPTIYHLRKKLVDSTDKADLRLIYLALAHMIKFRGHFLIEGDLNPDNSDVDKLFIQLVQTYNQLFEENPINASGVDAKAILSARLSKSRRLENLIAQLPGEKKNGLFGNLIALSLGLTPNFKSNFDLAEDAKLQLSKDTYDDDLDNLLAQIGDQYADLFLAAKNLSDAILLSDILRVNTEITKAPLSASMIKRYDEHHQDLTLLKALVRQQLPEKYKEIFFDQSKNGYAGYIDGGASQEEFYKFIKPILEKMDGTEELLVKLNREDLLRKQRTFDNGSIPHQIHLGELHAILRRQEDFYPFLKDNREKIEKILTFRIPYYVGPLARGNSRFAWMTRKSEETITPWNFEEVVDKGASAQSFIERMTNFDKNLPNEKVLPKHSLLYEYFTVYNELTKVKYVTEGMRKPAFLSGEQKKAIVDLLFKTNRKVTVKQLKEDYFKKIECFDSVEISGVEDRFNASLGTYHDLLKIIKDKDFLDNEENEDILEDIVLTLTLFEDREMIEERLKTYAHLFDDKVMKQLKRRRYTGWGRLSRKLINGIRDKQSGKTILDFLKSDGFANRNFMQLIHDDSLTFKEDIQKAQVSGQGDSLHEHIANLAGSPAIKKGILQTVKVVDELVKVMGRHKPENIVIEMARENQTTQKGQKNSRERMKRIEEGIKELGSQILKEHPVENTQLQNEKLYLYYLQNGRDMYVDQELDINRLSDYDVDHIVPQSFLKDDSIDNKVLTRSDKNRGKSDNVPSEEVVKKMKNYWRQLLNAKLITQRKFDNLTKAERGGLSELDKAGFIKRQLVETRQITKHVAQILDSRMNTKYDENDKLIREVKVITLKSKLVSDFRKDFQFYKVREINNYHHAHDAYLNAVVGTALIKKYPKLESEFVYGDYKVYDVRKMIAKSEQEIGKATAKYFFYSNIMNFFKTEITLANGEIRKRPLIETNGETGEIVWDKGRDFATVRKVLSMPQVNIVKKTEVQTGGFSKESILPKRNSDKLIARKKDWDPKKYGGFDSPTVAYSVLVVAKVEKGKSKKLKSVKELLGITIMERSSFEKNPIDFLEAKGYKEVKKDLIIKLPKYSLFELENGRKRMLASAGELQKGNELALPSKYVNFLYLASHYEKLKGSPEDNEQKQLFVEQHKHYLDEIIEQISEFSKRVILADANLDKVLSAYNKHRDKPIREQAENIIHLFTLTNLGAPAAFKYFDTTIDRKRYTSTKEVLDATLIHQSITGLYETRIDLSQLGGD

B1: sgRNA (103 nt) (structured_RNA)
RNA: GGUUGGACAUGCUCGACAUUCGUUUUAGAGCUAGAAAUAGCAAGUUAAAAUAAGGCUAGUCCGUUAUCAACUUGAAAAAGUGGCACCGAGUCGGUGCUUUUUU
Take B1: the binding result is “binds”.
